Bridge positions count the residues as written; N and C are the ends. Square brackets hold non-standard residues; d marks the D form. * marks the point of attachment. hArg = N=C(N)NCCCC[C@H](N)C(=O)O; Pentanoyl = CCCCC(=O)*
Tests used:
[1] = target: T1, human PCSK9 (proprotein convertase subtilisin/kexin type 9), His-tagged, full-length (human, UniProt A8T644 31-152; Q8NBP7 153-692, limits assumed); assay: TR-FRET competition vs EGF(A)-Fc on His-PCSK9
T1 construct: The secreted protein is the prodomain plus the catalytic/Cys-rich part (N-terminus S153) after autocleavage; also called His-PCSK9; NARC-1
T1 sequence (A8T644 31-152 limits assumed, chain 1 of 2): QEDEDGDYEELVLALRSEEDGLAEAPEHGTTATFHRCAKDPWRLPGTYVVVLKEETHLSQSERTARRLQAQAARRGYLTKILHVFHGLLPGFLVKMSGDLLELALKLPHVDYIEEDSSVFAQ
T1 sequence (A8T644 other isoform, or with tags, fused parts or gaps limits assumed, chain 2 of 2): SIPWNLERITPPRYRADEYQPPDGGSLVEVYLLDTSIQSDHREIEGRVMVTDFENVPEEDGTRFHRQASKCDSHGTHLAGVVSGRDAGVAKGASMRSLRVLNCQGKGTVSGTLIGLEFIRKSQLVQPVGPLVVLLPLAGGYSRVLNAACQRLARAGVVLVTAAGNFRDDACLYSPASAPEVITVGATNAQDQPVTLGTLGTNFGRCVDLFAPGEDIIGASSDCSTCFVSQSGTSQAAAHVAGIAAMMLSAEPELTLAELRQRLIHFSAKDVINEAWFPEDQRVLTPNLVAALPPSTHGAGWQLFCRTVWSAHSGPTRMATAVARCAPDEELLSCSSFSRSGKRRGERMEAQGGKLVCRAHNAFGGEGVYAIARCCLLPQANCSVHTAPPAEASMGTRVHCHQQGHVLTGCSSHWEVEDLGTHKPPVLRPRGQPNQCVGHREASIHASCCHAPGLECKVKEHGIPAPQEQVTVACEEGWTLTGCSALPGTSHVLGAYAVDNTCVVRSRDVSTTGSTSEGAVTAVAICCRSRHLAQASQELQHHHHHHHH

[2] = target: T1, human PCSK9 (proprotein convertase …); assay: SPR, SensiQ Pioneer FE, amine-coupled protein, OneStep gradient injection (Method 3)

IC50 [1] [µM]	Kd [2] [µM]	Binder
> 50	–	Ac-DLMPWNLVRIGL-NH2 [Compound 47]
> 50	–	Ac-DLMPWNLVRIGLL-NH2 [Compound 46]
> 50	–	Ac-WNLVRIGL-NH2 [Compound 120]
–	5.83	Ac-CFIPWNLQRIGLLC-NH2 (disulfide 1-14 (inferred)) [Compound 31]
> 50	–	Ac-DLMPWNLVRI-NH2 [Compound 49]

Continued, binder first:

Binder	IC50 [1] [µM]	Kd [2] [µM]
Pentanoyl-WNLVRIGLTR-NH2 (SMILES CCCCC(=O)N[C@@H](Cc1c[nH]c2ccccc12)C(=O)N[C@@H](CC(N)=O)C(=O)N[C@@H](CC(C)C)C(=O)N[C@H](C(=O)N[C@@H](CCCNC(=N)N)C(=O)N[C@H](C(=O)NCC(=O)N[C@@H](CC(C)C)C(=O)N[C@H](C(=O)N[C@@H](CCCNC(=N)N)C(N)=O)[C@@H](C)O)[C@@H](C)CC)C(C)C) [Compound 112]	> 50	–
Pentanoyl-WNLVRIGTTR-NH2 (SMILES CCCCC(=O)N[C@@H](Cc1c[nH]c2ccccc12)C(=O)N[C@@H](CC(N)=O)C(=O)N[C@@H](CC(C)C)C(=O)N[C@H](C(=O)N[C@@H](CCCNC(=N)N)C(=O)N[C@H](C(=O)NCC(=O)N[C@H](C(=O)N[C@H](C(=O)N[C@@H](CCCNC(=N)N)C(N)=O)[C@@H](C)O)[C@@H](C)O)[C@@H](C)CC)C(C)C) [Compound 113]	> 50	–
Pentanoyl-WNLVRIGTLR-NH2 (SMILES CCCCC(=O)N[C@@H](Cc1c[nH]c2ccccc12)C(=O)N[C@@H](CC(N)=O)C(=O)N[C@@H](CC(C)C)C(=O)N[C@H](C(=O)N[C@@H](CCCNC(=N)N)C(=O)N[C@H](C(=O)NCC(=O)N[C@H](C(=O)N[C@@H](CC(C)C)C(=O)N[C@@H](CCCNC(=N)N)C(N)=O)[C@@H](C)O)[C@@H](C)CC)C(C)C) [Compound 114]	> 50	–
Pentanoyl-WNLVRIGLLR-NH2 (SMILES CCCCC(=O)N[C@@H](Cc1c[nH]c2ccccc12)C(=O)N[C@@H](CC(N)=O)C(=O)N[C@@H](CC(C)C)C(=O)N[C@H](C(=O)N[C@@H](CCCNC(=N)N)C(=O)N[C@H](C(=O)NCC(=O)N[C@@H](CC(C)C)C(=O)N[C@@H](CC(C)C)C(=O)N[C@@H](CCCNC(=N)N)C(N)=O)[C@@H](C)CC)C(C)C) [Compound 111]	> 50	–
Ac-CRLPWNLQRIGLPC-NH2 (disulfide 1-14 (inferred)) [Compound 32]	–	1.3
Ac-PWNLVRIGL-NH2 [Compound 119]	> 50	–
Pentanoyl-WNLV[hArg]IGLTR-NH2 (SMILES CCCCC(=O)N[C@@H](Cc1c[nH]c2ccccc12)C(=O)N[C@@H](CC(N)=O)C(=O)N[C@@H](CC(C)C)C(=O)N[C@H](C(=O)N[C@@H](CCCCNC(=N)N)C(=O)N[C@H](C(=O)NCC(=O)N[C@@H](CC(C)C)C(=O)N[C@H](C(=O)N[C@@H](CCCNC(=N)N)C(N)=O)[C@@H](C)O)[C@@H](C)CC)C(C)C, also called n-BuC(O)-WNLV(homoR)IGLTR-NH2) [Compound 118]	> 50	–
Ac-DLMPWNLVRIG-NH2 [Compound 48]	> 50	–

Reference: patent publication US20190177366A1 (published 2019)
